# Measurements published in the RNAGym collection of RNA variant scans (doi:10.1021/acssynbio.7b00057).
# B1: Pistol ribozyme (parent)
# chain: GGGUCGUUGUUCCAUAAUCGCGUGGAUAUGGCACGCAAGUUUCUACCGGGCACCGUAAAUGUCCGACUGGAGCCGUUCGGGCGGCUAUAAACAGACCUCAGGCCCGAAGCGUGGCGGCACCUGCCGCCGGUGGUAAAAAAGAUCGGAAGAGCACACGUCU
# Variants of: B1
# Assay: aptazyme ON/OFF ratio, guanine; higher = stronger switching; co-transcriptional cleavage with and without guanine
row,Variant,aptazyme ON/OFF ratio
1,U7A U8G G9A U10G U11A C12U,1.12
2,U7A U8C U10A C13G,1.01
3,U8C U10C U11A C12U,1.39
4,U8C G9C U11C C13G,1.04
5,U7C G9U U10C U11A C12A C13A,1.15
6,U7C U8A G9U U10A U11G C12U C13G,1.16
7,U7G U8G C12U C13G,1.39
8,U8C G9U C12G C13A,1.21
9,U7A U8G U10G U11G C12U C13G,1.33
10,U7C U8C G9A U10A C13U,2.14
11,U8C G9U U10G U11G C12G,1.18
12,U7A U8A G9A U10G C12G C13A,1.06
13,U7A U8C G9A U10G U11A C12A,1.13
14,C12A,1.76
15,U8G G9A U10A U11C C12U C13A,1.18
16,U7C U8G G9U U10A U11C C12G C13U,1.19
17,U7A U8G U11C C12U,1.31
18,U7G U8C G9C U10A U11G C13U,1.18
19,U8C G9U U10C C12U C13A,1.06
20,U7A G9A U10G U11C C12A C13G,1.14
21,U7C U8C U10G U11C,1.39

row,Variant,aptazyme ON/OFF ratio
1,U7C U8G G9A U10C C12U C13A,1.08
2,U8C G9A U10A U11A C12A C13A,1.15
3,U7C G9C U10C U11C,0.99
4,U7A U8A G9C U10G C12A,1.1
5,U7C U8C G9U U10A C12A C13G,1.07
6,U7A U8A G9U U10G U11C C12G C13G,1.14
7,U7C U8C G9C U10C U11G C13G,1.19
8,U8G G9A U10A U11G C12U C13A,1.31
9,U7C U8C G9A U10C,1.45
10,U7A U8A U10C C12U C13U,1.14
11,U7A G9U U10G U11G C12G C13G,1.4
12,U7A U8A G9C U10G U11C C12U C13G,1.19
13,U7A U8C U10G U11A C12U C13A,1.2
14,U7C U8C U10C U11G C12G C13G,1.13
15,U8C G9C U11C C12U,1.08
16,U7A U11G C12G,1.27
17,U7A G9A C12G C13G,1.24
18,U7A G9A,1.83
19,U7A U8G U10A U11G C12U,1.12
20,U7G U8G G9U U10G C13U,1.36
21,U7G G9A U10G U11A C12G C13A,1.12

row,Variant,aptazyme ON/OFF ratio
1,U7G U8G G9C U10G U11G C12U C13U,1.17
2,U7C U8C G9A U11C C12A,1.51
3,U7G U8C G9C U10A U11G C12U C13A,1.22
4,U7C U8C,3.51
5,U7C U10A C12A C13U,1.25
6,U8G U10C U11G C12U C13U,1.13
7,U7C U8C U10G U11A C12G C13G,1.11
8,U7C U8A G9U U10A U11C C13U,1.06
9,U7G U8C G9A U10G U11G C12U C13A,1.28
10,U7G G9C U11C C12U C13G,1.27
11,U8G G9C U10C U11C C13A,1.06
12,U7C U8G G9U U10C U11G C13G,1.03
13,U7G U10A U11C C12A C13G,1.2
14,U7C U8C G9C U11C C13U,1.24
15,U7A U8A G9C U10A U11C C12G,1.16
16,U7C U8A G9A U11G C12G C13U,1.13
17,U8C G9A U10G U11G C12A C13A,1.15
18,U7A U8A G9U U10C C12A,1.17
19,U8C G9A U10G U11C C12G C13G,1.28
20,U10A C12G C13G,1.17
21,U7A U11G C13U,1.04

row,Variant,aptazyme ON/OFF ratio
1,U7C U8A G9U U10A C12U C13G,1.16
2,U7A G9A U11C C12G,1.18
3,U8G G9A C12U,1.39
4,U7A U10G U11C,1.04
5,U8A U10G C12U C13U,1.36
6,U7A U8A G9A C12U C13G,1.12
7,U7C U8A G9C U10A U11C C12U C13U,1.12
8,U7A U8G G9A U10A U11C C12U C13G,1.17
9,U7A C12U C13U,1.38
10,U7A U8A U10G U11G C12U,1.46
11,U7G U8G G9C U10G U11A C12U C13A,1.13
12,U8C G9C U10G C12U C13U,1.28
13,G9U U10G U11C C12A C13U,1.23
14,U8A G9C U11A C12G,1.22
15,U7G U8C G9C U10A C12A C13A,1.08
16,U7A U8A G9C U10A U11C C12A C13G,1.12
17,U7G U8A G9A U11G,1.26
18,U7C U8A U10C U11A C12G C13A,1.14
19,U8A U10G U11A C12A C13A,1.3
20,U7G U10A U11G C12A C13G,1.09
21,U7A U8A G9A U11A C12G,1.24
